T1: NH2-terminal GST-p27^Kip1
T1 chain: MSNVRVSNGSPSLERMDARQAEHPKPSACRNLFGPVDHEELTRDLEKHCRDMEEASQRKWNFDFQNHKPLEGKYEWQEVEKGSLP

T2: p57^Kip2 as used in the in vitro phosphorylation assay
T2 sequence (P49918 1-316, species assumed, looked up): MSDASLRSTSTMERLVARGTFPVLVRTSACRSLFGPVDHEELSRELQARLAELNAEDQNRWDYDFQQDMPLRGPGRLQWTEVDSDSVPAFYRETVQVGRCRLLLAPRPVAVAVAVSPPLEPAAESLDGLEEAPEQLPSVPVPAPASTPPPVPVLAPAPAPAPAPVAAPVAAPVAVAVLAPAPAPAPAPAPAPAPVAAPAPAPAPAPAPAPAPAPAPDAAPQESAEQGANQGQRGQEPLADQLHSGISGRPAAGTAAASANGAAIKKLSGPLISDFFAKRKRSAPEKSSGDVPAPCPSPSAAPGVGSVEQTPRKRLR

B1: in vitro translated hKIS from pcDNA3.1/His ([35S]-methionine-labeled or unlabeled, epitope-tagged) (protein)
chain: MAGSGCAWGAEPPRFLEAFGRLWQVQSRLGSGSSASVYRVRCCGNPGSPPGALKQFLPPGTTGAAASAAEYGFRKERAALEQLQGHRNIVTLYGVFTIHFSPNVPSRCLLLELLDVSVSELLLYSSHQGCSMWMIQHCARDVLEALAFLHHEGYVHADLKPRNILWSAENECFKLIDFGLSFKEGNQDVKYIQTDGYRAPEAELQNCLAQAGLQSDTECTSAVDLWSLGIILLEMFSGMKLKHTVRSQEWKANSSAIIDHIFASKAVVNAAIPAYHLRDLIKSMLHDDPSRRIPAEMALCSPFFSIPFAPHIEDLVMLPTPVLRLLNVLDDDYLGNEEEYEDVVEDVKEECQKYGPVVSLLVPKENPGRGQVFVEYANAGDSKAAQKLLTGRMFDGKFVVATFYPLSAYKRGYLYQTLL
B2: pLAM5′ (human laminC/GAL4 DNA binding domain) (other, UniProt P04386 1-147, looked up)
chain: MKLLSSIEQACDICRLKKLKCSKEKPKCAKCLKNNWECRYSPKTKRSPLTRAHLTEVESRLERLEQLFLLIFPREDLDMILKMDSLQDIKALLTGLFVQDNVNKDAVTDRLASVETDMPLTLRQHRISATSSSEESSNKGQRQLTVSSEEVVSREVSGIKAAYEAELGDARKTLDSVAKERARLQLELSKVREEFKELKARNTKKEGDLIAAQARLKDLEALLNSKEAALSTALSEKRTLEGELHDLRGQVAKLEAALGEAKKQLQDEMLRRVDAENRLQTMKEELDFQKNIYSEELRETKRRHETRLVEID
notes: Bought control plasmid (Clontech)
B3: hKIS (human KIS), clone C21, fused to the GAL4 activating domain (enzyme, not shown: large carriers)
chain: B1 chain
notes: Prey of the yeast two-hybrid assay; also called the clones

Columns and labels:
[1] = molecular target: NH2-terminal GST-p27^Kip1 with serine 10 to alanine (pGSTp27^Kip1 NH2S1OM)
[2] = molecular target: T1, NH2-terminal GST-p27^Kip1
[3] = molecular target: p16^Ink4 as used in the in vitro phosphorylation assay
[4] = molecular target: p21^Cip1 as used in the in vitro phosphorylation assay
[5] = molecular target: T2, p57^Kip2 as used in the in vitro …
[6] = molecular target: purified recombinant p27^Kip1 (bacterial-produced)
[7] = molecular target: B3; test: yeast two-hybrid, beta-galactosidase staining
[8] = molecular target: T3, pVA3 (murine p53/GAL4 DNA binding domain) (murine, UniProt P04386 1-147; P02340 72-390); test: yeast two-hybrid, beta-galactosidase staining
T3 construct: Bought control plasmid (Clontech)

For B1, the “in vitro phosphorylation assay” value [1] was “mutation of serine 10 to alanine (S10A) abolished phosphorylation of GST-p27^Kip1”, the “in vitro phosphorylation assay” value [2] was “phosphorylation of GST-p27^Kip1 was detected in the NH2.terminal region of the protein” and the “in vitro phosphorylation in the presence of ^32P-ATP” value [3] was “hKIS did not phosphorylate p57^Kip2, p21^Cip1 or p16^Ink4”. For the same binder, the “in vitro phosphorylation in the presence of ^32P-ATP” value [4] was “hKIS did not phosphorylate p57^Kip2, p21^Cip1 or p16^Ink4”, the “in vitro phosphorylation in the presence of ^32P-ATP” value [5] was “hKIS did not phosphorylate p57^Kip2, p21^Cip1 or p16^Ink4” and the “in vitro phosphorylation in the presence of ^32P-ATP” value [6] was “hKIS readily phosphorylated bacterial-produced p27^Kip1”.

B2: no binding [7].

B3: no binding [8].

Source: patent publication US6894154 (REGENTS OF THE UNIVERSITY OF MICHIGAN, dated 2005)
